The term Kd denotes the equilibrium constant for the complex coming apart. Higher therefore signals lower affinity.

Data on three molecules can be found in patent US20260022175A1 (Chugai, published 2026).

The target of assay [1] is T1, human FcγRIa extracellular domain with C-terminal His-tag (human, UniProt P12314 16-292).
T1 construct: extracellular domain; also called hFcγR Ia; hFcγRIa
Kind of assay: SPR Biacore T200, Ab captured via Fab-lambda, pH 7.4, 25C.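 Note: antibodies captured on a streptavidin chip carrying biotinylated anti-Fab-lambda, with each FcγR injected as analyte in phosphate buffer. KD fitted by 1:1 Langmuir or steady-state model depending on receptor.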 In general terms: In SPR one partner is held on a chip, and binding of the other changes the refractive index at the surface.

The target of assay [2] is T2, human FcγRIIa R allotype extracellular domain with C-terminal His-tag (human, UniProt P12318 34-217).
T2 construct: extracellular domain; also called hFcγR IIa R
T2 sequence (looked up): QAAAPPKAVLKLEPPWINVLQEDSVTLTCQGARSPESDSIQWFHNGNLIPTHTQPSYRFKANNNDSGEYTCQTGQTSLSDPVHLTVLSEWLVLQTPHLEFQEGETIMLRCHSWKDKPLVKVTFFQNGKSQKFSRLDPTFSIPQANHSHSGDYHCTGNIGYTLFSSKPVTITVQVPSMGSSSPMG
The description is as above.

Assay [3] has as its target T3, human FcγRIIa H allotype extracellular domain with C-terminal His-tag (human, UniProt P12318 34-217).
T3 construct: extracellular domain; also called hFcγR IIa H
T3 sequence (looked up): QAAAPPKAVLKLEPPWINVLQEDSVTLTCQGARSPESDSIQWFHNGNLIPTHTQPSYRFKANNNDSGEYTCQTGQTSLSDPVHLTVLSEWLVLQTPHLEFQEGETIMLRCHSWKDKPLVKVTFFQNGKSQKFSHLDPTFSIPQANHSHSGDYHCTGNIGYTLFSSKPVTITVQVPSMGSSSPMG
Described as above.

Assay [4] deals with T4, human FcγRIIIa F allotype extracellular domain with C-terminal His-tag (human, UniProt P08637 17-208).
T4 construct: extracellular domain; also called hFcγR IIIa F
Described as above.

For assay [5], the target named is T5, human FcγRIIIa V allotype extracellular domain with C-terminal His-tag (human, UniProt P08637 17-208).
T5 construct: extracellular domain; also called hFcγR IIIa V
The assay is described as above.

The target of assay [6] is T6, human FcγRIIb extracellular domain with C-terminal His-tag (human, UniProt P31994 43-217).
T6 construct: extracellular domain; also called hFcγR IIb
T6 sequence (looked up): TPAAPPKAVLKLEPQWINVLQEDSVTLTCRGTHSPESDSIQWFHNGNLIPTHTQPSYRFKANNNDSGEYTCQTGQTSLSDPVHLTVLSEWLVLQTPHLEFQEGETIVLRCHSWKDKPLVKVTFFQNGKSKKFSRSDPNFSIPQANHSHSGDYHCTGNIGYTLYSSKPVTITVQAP
The experiment in a line: SPR; FcγRIIb at 1000 nM, bound amount per unit captured Ab.
Procedure: The interaction between the generated antibodies and human FcγRs was analyzed by the following method using Biacore T200. 50 mM Na-Phosphate, 150 mM NaCl, 0.05% Tween20 (pH 7.4) was used as the running buffer, and the assay was performed at 25° C. For the sensor chips, Series S SA (GE Healthcare) chips onto which CaptureSelect Human Fab-lambda Kinetics Biotin Conjugate (Thermo Fisher Scientific) was immobilized were used. The antibodies of interest were captured onto these chips and each FcγR diluted in the running buffer was allowed to interact with them. Chips were regenerated with 10 mM Glycine-HCl (pH 1.5) and 25 mM NaOH, and assay was performed by repeatedly capturing antibodies. The dissociation constants KD (mol/L) for FcγRs of each antibody were calculated using Biacore T200 Evaluation Software 2.0, using the 1:1 Langmuir binding model for FcγRIa and FcγRIIIa and the steady state affinity model for FcγRIIa. For FcγRIIb, the binding amount of FcγRIIb per unit amount of antibody was calculated by correcting the binding amount of FcγRIIb obtained from the sensorgram obtained by the measurement with the amount of antibody captured onto the chip surface.

For assay [7], the target named is T1, human FcγRIa extracellular domain with …. Kind of assay: SPR; KD of 04H1637-G1m/04L1610-lam1 divided by KD of variant.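 Note: biacore T200 SPR at 25 °C, antibodies captured on anti-Fab-lambda SA chip with receptor as analyte, running buffer pH 7.4 for FcγRs and pH 6.0 for FcRn.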
Assay [8] addresses T2, human FcγRIIa R allotype extracellular …. The assay is described as above.
Assay [9] has as its target T3, human FcγRIIa H allotype extracellular …. The assay is described as above.
Assay [10] has as its target T4, human FcγRIIIa F allotype extracellular …. Described as above.
Assay [11] deals with T5, human FcγRIIIa V allotype extracellular …. The description is as above.
Assay [12] addresses T6, human FcγRIIb extracellular domain with …. The experiment in a line: SPR; binding amount divided by that of 04H1637-G1m/04L1610-lam1.

T5 sequence (P08637 17-208 F176V): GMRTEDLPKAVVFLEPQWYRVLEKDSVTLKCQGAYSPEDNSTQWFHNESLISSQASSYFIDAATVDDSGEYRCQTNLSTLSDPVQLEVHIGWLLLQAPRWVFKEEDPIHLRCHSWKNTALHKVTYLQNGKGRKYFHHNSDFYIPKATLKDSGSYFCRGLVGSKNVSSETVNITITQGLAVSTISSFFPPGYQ
T4 sequence (P08637 17-208): as the sequence (P08637 17-208 F176V) above, with V160F counted along it
T1 sequence (P12314 16-292): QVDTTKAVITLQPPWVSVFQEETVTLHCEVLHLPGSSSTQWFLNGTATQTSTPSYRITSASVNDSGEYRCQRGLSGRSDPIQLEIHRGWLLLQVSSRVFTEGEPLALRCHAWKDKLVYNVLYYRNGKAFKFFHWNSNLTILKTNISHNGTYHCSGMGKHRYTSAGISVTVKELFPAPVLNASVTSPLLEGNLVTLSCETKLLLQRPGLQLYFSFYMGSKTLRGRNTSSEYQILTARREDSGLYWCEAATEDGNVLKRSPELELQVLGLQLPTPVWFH

B1: 04H1637-Kn125/04L1610-lam1//04H1637-Hl076/04L1610-lam1 (antibody, human IgG1, lambda)
heavy 1: QVQLVESGGGLVKPGGSLRLSCAASGFTFSSKTMNWVRQAPGKGLEWVSSISTQSHYIYYAESVRGRFTISRDNAKNSLYLQMNSLRAEDTAVYYCARYGKREDMLWVFDYWGQGTLVTVSSASTKGPSVFPLAPSSKSTSGGTAALGCLVKDYFPEPVTVSWNSGALTSGVHTFPAVLQSSGLYSLSSVVTVPSSSLGTQTYICNVNHKPSNTKVDKKVEPKSCDKTHTCPPCPAPEYQWGPMVFLFPPKPKDTLMISRTPEVTCVVVDVSDEEPEVKFNWYVDGVEVHNAKTKPREEQYNATYRVVSVLTVLHQDWLNGKEYKCKVSNKALPAPIEKTISKAKGQPREPQVCTLPPSRDELTKNQVSLWCLVKGFYPSDIAVEWESNGQPENNYKTTPPVLDSDGSFFLYSKLTVDKSRWQQGNVFSCSVMHEALHNHYTQKSLSLSP
heavy 2: QVQLVESGGGLVKPGGSLRLSCAASGFTFSSKTMNWVRQAPGKGLEWVSSISTQSHYIYYAESVRGRFTISRDNAKNSLYLQMNSLRAEDTAVYYCARYGKREDMLWVFDYWGQGTLVTVSSASTKGPSVFPLAPSSKSTSGGTAALGCLVKDYFPEPVTVSWNSGALTSGVHTFPAVLQSSGLYSLSSVVTVPSSSLGTQTYICNVNHKPSNTKVDKKVEPKSCDKTHTCPPCPAPELLGGPSVFLFPPKPKDTLMISRTPEVTCVVVDVSHEEPEVKFNWYVDGVEVHNAKTKPREEQYNSTYRVVSVLTVLHQDWLNGKEYKCKVSNDALPMPIEETISKAKGQPREPQVYTLPPSRCELTKNQVSLSCAVKGFYPSDIAVEWESNGQPENNYKTTPPVLDSDGSFFLVSKLTVDKSRWQQGNVFSCSVMHEALHNHYTQKSLSLSP
light: QSALTQPPSASGSPGQSVTISCEGPSTGVGDYNWVHWYQQHPGKAPKLMIYFTSKKPSGVPDRFSGSKSGNTASLTVSGLQAEDEADYYCQTYAAPLGPMFGGGTKLTVLGQPKAAPSVTLFPPSSEELQANKATLVCLISDFYPGAVTVAWKADSSPVKAGVETTTPSKQSNNKYAASSYLSLTPEQWKSHRSYSCQVTHEGSTVEKTVAPTECS
notes: Heterodimerized antibody, Fc variant of WO 2013/002362; also called 04H1637-Kn125/04L1610-lam1//04H1637-H1076/04L1610-lam1
As to B1, the Kd was found to be 0.04 nM in assay [1]; 1200 nM in [2]; 410 nM in assay [3]; 3.4 nM in assay [4]; 1.9 nM in assay [5]. The same molecule registered a Binding amount in assay [6] of 0.007. The “Relative value to KD between G1m and hFcγRs” value (“Relative value” for short) was 1.2 in assay [7]; 1.6 in assay [8]; 3.6 in assay [9]; 406 in assay [10]; 126 in [11]. For the same molecule, the Relative binding amount in assay [12] is 0.9.

B2: 04H1637-Kn461/04L1610-lam1//04H1637-Hl443/04L1610-lam1 (antibody, human IgG1, lambda)
heavy 1: QVQLVESGGGLVKPGGSLRLSCAASGFTFSSKTMNWVRQAPGKGLEWVSSISTQSHYIYYAESVRGRFTISRDNAKNSLYLQMNSLRAEDTAVYYCARYGKREDMLWVFDYWGQGTLVTVSSASTKGPSVFPLAPSSKSTSGGTAALGCLVKDYFPEPVTVSWNSGALTSGVHTFPAVLQSSGLYSLSSVVTVPSSSLGTQTYICNVNHKPSNTKVDKKVEPKSCDKTHTCPPCPAPEFQWGPMVFLFPPKPKDVLMISRTPEVTCVVVDVSDEEPEVKFNWYVDGVEVHNAKTKPREEQYNATYRVVSVLPVLHQDWLNGKEYKCKVSNDALPAPEEKTISKAKGQPREPQVCTLPPSRDELTKNQVSLWCLVKGFYPSDIAVEWESNGQPENNYKTTPPVLDSDGSFFLYSKLTVDKSRWQQGNVFSCSVMHEALHNHYTQKSLSLSP
heavy 2: QVQLVESGGGLVKPGGSLRLSCAASGFTFSSKTMNWVRQAPGKGLEWVSSISTQSHYIYYAESVRGRFTISRDNAKNSLYLQMNSLRAEDTAVYYCARYGKREDMLWVFDYWGQGTLVTVSSASTKGPSVFPLAPSSKSTSGGTAALGCLVKDYFPEPVTVSWNSGALTSGVHTFPAVLQSSGLYSLSSVVTVPSSSLGTQTYICNVNHKPSNTKVDKKVEPKSCDKTHTCPPCPAPELLAGPSVFLFPPKPKDVLMISRTPEVTCVVVDVSHEEPEVKFNWYVDGVEVHNAKTKPREEQYNATYRVVSVLPVLHQDWLNGKEYKCKVSNDALPAPEEETISKAKGQPREPQVYTLPPSRCELTKNQVSLSCAVKGFYPSDIAVEWESNGQPENNYKTTPPVLDSDGSFFLVSKLTVDKSRWQQGNVFSCSVMHEALHNHYTQKSLSLSP
light: QSALTQPPSASGSPGQSVTISCEGPSTGVGDYNWVHWYQQHPGKAPKLMIYFTSKKPSGVPDRFSGSKSGNTASLTVSGLQAEDEADYYCQTYAAPLGPMFGGGTKLTVLGQPKAAPSVTLFPPSSEELQANKATLVCLISDFYPGAVTVAWKADSSPVKAGVETTTPSKQSNNKYAASSYLSLTPEQWKSHRSYSCQVTHEGSTVEKTVAPTECS
notes: Heterodimerized antibody; also called 04H1637-Kn461/04L1610-lam1//04H1637-H1443/04L1610-lam1
Consider B2, for which the dissociation constant (Kd) in assay [1] was 0.042 nM; in [2] it was 190 nM; in [3] it was 130 nM; in assay [4], 2.2 nM; in assay [5], 1.1 nM. The same molecule yielded a Binding amount in assay [6] of 0.025. The “Relative value” value was found to be 1.2 in assay [7]; 10.7 in assay [8]; 11.1 in assay [9]; 616 in assay [10]; 226 in assay [11]. In [12], the Relative binding amount was 3.1.

B3: 04H1637-Kn462/04L1610-lam1//04H1637-Hl445/04L1610-lam1 (antibody, human IgG1, lambda)
heavy 1: QVQLVESGGGLVKPGGSLRLSCAASGFTFSSKTMNWVRQAPGKGLEWVSSISTQSHYIYYAESVRGRFTISRDNAKNSLYLQMNSLRAEDTAVYYCARYGKREDMLWVFDYWGQGTLVTVSSASTKGPSVFPLAPSSKSTSGGTAALGCLVKDYFPEPVTVSWNSGALTSGVHTFPAVLQSSGLYSLSSVVTVPSSSLGTQTYICNVNHKPSNTKVDKKVEPKSCDKTHTCPPCPAPEFQWGPMVFLFPPKPKDVLMISRTPEVTCVVVDVSDEEPEVKFNWYVDGVEVHNAKTKPREEQYNATYRVVSVLPVLHQDWLNGKEYKCKVSNDALPAPIEKTISKAKGQPREPQVCTLPPSRDELTKNQVSLWCLVKGFYPSDIAVEWESNGQPENNYKTTPPVLDSDGSFFLYSKLTVDKSRWQQGNVFSCSVMHEALHNHYTQKSLSLSP
heavy 2: QVQLVESGGGLVKPGGSLRLSCAASGFTFSSKTMNWVRQAPGKGLEWVSSISTQSHYIYYAESVRGRFTISRDNAKNSLYLQMNSLRAEDTAVYYCARYGKREDMLWVFDYWGQGTLVTVSSASTKGPSVFPLAPSSKSTSGGTAALGCLVKDYFPEPVTVSWNSGALTSGVHTFPAVLQSSGLYSLSSVVTVPSSSLGTQTYICNVNHKPSNTKVDKKVEPKSCDKTHTCPPCPAPELLAGPSVFLFPPKPKDVLMISRTPEVTCVVVDVSHEEPEVKFNWYVDGVEVHNAKTKPREEQYNATYRVVSVLPVLHQDWLNGKEYKCKVSNDALPKPDEETISKAKGQPREPQVYTLPPSRCELTKNQVSLSCAVKGFYPSDIAVEWESNGQPENNYKTTPPVLDSDGSFFLVSKLTVDKSRWQQGNVFSCSVMHEALHNHYTQKSLSLSP
light: QSALTQPPSASGSPGQSVTISCEGPSTGVGDYNWVHWYQQHPGKAPKLMIYFTSKKPSGVPDRFSGSKSGNTASLTVSGLQAEDEADYYCQTYAAPLGPMFGGGTKLTVLGQPKAAPSVTLFPPSSEELQANKATLVCLISDFYPGAVTVAWKADSSPVKAGVETTTPSKQSNNKYAASSYLSLTPEQWKSHRSYSCQVTHEGSTVEKTVAPTECS
notes: Heterodimerized antibody; also called 04H1637-Kn462/04L1610-lam1//04H1637-H1445/04L1610-lam1
In the case of B3, the Kd in assay [1] was found to be 0.076 nM; in [2], 110 nM; in [3], 39 nM; in [4], 3.6 nM; in [5], 1.8 nM. For the same molecule, the Binding amount in [6] is 0.03. Moreover, the “Relative value” value was 0.6 in assay [7]; 18.7 in assay [8]; 37.5 in assay [9]; 382 in assay [10]; 131 in assay [11]. Also, the Relative binding amount in assay [12] was 3.7.
